Measurements published in article PMC12623717.

Assays:
[1] = target: Rotavirus strain SA11 nonstructural protein 2 with the K294E change, untagged (NSP2 K294E) (rotavirus strain SA11); assay: crystal structure; sitting drop vapor diffusion, 20 °C; protein ~8 mg/mL in 10 mM Tris-HCl pH 7.2, 50 mM NaCl, 1 mM DTT; reservoir 100 mM Tris-HCl pH 7.5, 0.2 M magnesium acetate, 12% PEG6K; space group I422, 1 molecule per asymmetric unit, octamer with D4 symmetry
[2] = target: Rotavirus strain SA11 nonstructural protein 2, wildtype, untagged (NSP2WT) (rotavirus strain SA11); assay: as above

Rotavirus strain SA11 nonstructural protein 2 with the K294E change, untagged (NSP2 K294E) (natural protein)
stoichiometry N [1]: 8

Rotavirus strain SA11 nonstructural protein 2, wildtype, untagged (NSP2WT) (natural protein)
stoichiometry N [2]: 8
